# Experimental data published in IntAct's records for PubMed 22164283.
# Biological target: tbxt_mouse Tbxt (UniProt P20293)
# Sequence (P20293 whole entry): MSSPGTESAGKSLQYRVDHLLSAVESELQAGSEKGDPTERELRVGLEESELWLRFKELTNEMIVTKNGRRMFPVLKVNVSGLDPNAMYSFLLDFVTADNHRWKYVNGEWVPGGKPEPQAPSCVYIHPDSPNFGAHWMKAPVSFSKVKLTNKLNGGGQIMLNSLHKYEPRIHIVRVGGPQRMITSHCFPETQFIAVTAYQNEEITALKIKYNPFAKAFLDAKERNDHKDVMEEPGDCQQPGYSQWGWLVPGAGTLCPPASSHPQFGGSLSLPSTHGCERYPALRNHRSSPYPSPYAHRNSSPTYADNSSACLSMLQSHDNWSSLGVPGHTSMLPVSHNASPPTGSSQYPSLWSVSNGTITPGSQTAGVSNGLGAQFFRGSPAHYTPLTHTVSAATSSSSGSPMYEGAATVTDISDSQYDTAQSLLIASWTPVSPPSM
# Sequence of Homeobox protein MIXL1 (Mus musculus), Q9WUI0 V132A (Q9WUI0 whole entry V132A): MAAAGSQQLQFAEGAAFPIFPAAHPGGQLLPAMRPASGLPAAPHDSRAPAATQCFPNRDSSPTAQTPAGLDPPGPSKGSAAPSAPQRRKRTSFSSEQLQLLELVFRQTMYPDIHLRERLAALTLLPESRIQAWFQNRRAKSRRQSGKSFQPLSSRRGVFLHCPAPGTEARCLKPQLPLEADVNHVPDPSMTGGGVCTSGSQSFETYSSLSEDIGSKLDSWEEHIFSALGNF
# Sequence of Homeobox protein MIXL1 (Mus musculus), Q9WUI0 I113R (Q9WUI0 whole entry I113R): as the sequence (Q9WUI0 whole entry V132A) above, with I113R, A132V counted along it
# Sequence of Homeobox protein MIXL1 (Mus musculus), Q9WUI0 P126I (Q9WUI0 whole entry P126I): as the sequence (Q9WUI0 whole entry V132A) above, with P126I, A132V counted along it
# Sequence of Homeobox protein MIXL1 (Mus musculus), Q9WUI0 R143I (Q9WUI0 whole entry R143I): as the sequence (Q9WUI0 whole entry V132A) above, with A132V, R143I counted along it
row,effect of a mutation on the interaction,Substance
1,with no effect,"Homeobox protein MIXL1 (Mus musculus), Q9WUI0 I113R"
2,decreasing interaction strength,"Homeobox protein MIXL1 (Mus musculus), Q9WUI0 P126I"
3,with no effect,"Homeobox protein MIXL1 (Mus musculus), Q9WUI0 V132A"
4,with no effect,"Homeobox protein MIXL1 (Mus musculus), Q9WUI0 R143I"
